Earlier results, collected in publication PMC12635586.
pKd: −log10 of the molar value.

How the values were obtained:
GFRAL (Homo sapiens) = GFRAL (Homo sapiens) (UniProt Q6UXV0)
GFRAL (Homo sapiens), sequence (Q6UXV0 19-351): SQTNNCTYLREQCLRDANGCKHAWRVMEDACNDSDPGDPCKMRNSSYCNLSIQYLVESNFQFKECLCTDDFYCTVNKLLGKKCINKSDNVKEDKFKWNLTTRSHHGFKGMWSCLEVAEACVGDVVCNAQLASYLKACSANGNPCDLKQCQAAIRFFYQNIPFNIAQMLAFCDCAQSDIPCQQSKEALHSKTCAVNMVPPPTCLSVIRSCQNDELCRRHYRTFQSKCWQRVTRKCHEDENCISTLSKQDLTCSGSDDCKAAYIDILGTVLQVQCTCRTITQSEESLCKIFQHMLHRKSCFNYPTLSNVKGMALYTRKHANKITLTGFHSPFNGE

Growth differentiation factor-15, sequence (Q99988 195-308): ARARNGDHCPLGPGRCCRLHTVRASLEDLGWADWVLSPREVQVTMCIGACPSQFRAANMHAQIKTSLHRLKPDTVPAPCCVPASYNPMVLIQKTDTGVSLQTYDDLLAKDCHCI
Interleukin-6, sequence (P05231 30-212): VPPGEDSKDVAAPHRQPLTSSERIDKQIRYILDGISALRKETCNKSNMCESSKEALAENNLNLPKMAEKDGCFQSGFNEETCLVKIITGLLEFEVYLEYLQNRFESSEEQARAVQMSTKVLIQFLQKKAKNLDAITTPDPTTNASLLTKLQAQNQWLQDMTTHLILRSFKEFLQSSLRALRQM
Clazakizumab, sequence (main, as listed by the source, chain 1 of 2): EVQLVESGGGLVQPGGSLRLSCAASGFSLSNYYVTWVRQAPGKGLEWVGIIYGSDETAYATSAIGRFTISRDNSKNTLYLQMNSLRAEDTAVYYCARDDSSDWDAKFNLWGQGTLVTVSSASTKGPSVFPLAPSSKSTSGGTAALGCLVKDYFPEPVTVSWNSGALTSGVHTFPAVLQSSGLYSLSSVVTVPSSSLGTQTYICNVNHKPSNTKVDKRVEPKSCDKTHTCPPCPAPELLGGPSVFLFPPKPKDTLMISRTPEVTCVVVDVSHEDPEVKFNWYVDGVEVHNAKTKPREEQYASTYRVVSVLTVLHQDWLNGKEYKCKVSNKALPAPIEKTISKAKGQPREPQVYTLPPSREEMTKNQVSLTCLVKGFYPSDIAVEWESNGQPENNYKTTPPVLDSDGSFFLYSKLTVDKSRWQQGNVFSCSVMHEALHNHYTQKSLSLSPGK
Clazakizumab, sequence (partner, as listed by the source, chain 2 of 2): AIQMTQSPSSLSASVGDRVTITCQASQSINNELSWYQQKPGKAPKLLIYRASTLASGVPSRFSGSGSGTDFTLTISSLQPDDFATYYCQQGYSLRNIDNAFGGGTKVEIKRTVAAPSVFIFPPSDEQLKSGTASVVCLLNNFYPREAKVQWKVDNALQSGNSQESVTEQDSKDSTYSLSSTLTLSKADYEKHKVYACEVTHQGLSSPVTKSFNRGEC

For “Growth differentiation factor-15 (from UniProt Q99988)”, the pKd (GFRAL (Homo sapiens)) is given as 8.10.
For Interleukin-6 (from UniProt P05231), the pKd (Clazakizumab) is given as 11.40.
